According to PMC8139713:

Biological target: ACE2-Fc (soluble human ACE2 fused to human IgG Fc) (human) (UniProt Q9BYF1)
Test: BLI

Sequence of ACE2-Fc (soluble human ACE2 fused to human IgG Fc) (human) (Q9BYF1 18-738): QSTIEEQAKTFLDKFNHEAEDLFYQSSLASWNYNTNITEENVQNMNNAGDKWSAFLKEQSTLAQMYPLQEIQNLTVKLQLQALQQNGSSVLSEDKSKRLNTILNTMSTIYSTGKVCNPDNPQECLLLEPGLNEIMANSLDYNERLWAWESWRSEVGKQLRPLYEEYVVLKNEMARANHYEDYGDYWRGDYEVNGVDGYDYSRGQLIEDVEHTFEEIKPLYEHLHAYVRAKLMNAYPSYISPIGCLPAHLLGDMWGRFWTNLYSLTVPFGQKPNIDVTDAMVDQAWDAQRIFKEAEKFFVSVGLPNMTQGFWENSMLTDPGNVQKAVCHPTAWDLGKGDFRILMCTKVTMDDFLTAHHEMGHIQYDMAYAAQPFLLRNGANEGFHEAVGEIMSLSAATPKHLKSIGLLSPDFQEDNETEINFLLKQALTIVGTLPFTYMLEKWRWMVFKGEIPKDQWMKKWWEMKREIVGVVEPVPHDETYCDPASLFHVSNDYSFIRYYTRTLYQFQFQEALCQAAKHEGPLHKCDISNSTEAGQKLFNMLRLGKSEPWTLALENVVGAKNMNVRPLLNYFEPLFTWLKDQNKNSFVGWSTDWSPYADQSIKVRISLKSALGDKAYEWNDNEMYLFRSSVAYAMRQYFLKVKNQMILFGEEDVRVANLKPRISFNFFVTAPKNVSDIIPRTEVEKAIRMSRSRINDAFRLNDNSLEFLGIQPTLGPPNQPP

Substance: wild-type SARS-CoV-1 S-Trimer (from UniProt P59594 14-1193) (domain or fragment)
- Kd: 1.2 nM
